Patent publication US20130280259A1, “USE OF ANTIBODIES AGAINST NK1, NK2 AND/OR NK3 RECEPTORS IN CANCER TREATMENT” (SERVICIO ANDALUZ DE SALUD, priority 2010, published 2013)
One block for each molecule: values may come before it. Positions of bridges follow the written chain, without caps; N, C: chain ends. Non-standard residues stand in square brackets, D forms with d. Residues, ends and D or L forms follow the SMILES beside them. *: point of attachment. NH(β-GlcNAc) = CC(=O)N[C@@H]1[C@@H](O)[C@H](O)[C@@H](CO)O[C@H]1N*; Dap = NC[C@H](N)C(=O)O

Legend:
[1] = system: human breast cancer cells; conditions: Singh D et al., 2000; Bigioni M. et al., 2005; cited from earlier work
NK2 receptor (human) = NK2 receptor (human) (UniProt P21452); experiment: cell-based or functional assay
Sequence of UniProt P21452 (P21452 whole entry): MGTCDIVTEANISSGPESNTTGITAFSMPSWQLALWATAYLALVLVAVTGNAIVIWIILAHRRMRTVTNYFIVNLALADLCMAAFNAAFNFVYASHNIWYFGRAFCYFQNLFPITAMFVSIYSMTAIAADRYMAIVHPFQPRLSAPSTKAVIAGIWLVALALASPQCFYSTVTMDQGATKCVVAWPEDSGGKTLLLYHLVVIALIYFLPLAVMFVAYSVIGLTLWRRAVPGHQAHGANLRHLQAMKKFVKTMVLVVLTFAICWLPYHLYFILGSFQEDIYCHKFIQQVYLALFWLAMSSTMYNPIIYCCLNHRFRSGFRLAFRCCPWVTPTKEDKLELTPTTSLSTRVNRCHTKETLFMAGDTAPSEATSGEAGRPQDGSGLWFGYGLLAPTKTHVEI

NK3 receptor (human) = NK3 receptor (human) (UniProt P29371); experiment: cell-based or functional assay
Sequence of UniProt P29371 (P29371 whole entry): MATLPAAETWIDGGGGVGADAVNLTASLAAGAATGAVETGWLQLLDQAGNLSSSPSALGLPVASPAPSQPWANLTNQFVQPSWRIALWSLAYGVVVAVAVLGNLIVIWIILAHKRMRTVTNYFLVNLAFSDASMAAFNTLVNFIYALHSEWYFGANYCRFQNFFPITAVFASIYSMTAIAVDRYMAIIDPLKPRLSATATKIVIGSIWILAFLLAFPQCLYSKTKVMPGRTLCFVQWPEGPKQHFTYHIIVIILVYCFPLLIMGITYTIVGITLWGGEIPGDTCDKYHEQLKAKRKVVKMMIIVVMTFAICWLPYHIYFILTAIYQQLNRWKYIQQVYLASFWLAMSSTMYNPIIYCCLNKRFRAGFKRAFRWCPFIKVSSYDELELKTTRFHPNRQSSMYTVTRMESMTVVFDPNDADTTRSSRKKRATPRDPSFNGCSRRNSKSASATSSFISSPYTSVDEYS

NK1 receptor (human) = NK1 receptor (human) (UniProt P25103); experiment: cell-based or functional assay
Sequence of UniProt P25103 (P25103 whole entry): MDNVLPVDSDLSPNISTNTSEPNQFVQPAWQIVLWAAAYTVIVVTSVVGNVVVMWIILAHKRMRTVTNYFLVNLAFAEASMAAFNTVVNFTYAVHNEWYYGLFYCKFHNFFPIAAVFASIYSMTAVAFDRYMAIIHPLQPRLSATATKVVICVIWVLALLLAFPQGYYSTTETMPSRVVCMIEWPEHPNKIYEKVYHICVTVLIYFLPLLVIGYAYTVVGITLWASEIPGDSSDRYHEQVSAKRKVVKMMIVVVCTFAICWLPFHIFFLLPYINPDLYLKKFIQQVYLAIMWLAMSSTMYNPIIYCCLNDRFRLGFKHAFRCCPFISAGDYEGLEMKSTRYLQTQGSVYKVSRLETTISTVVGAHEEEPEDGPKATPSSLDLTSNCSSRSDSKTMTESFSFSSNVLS

[2] = biological target: NK1, NK2 and NK3 receptors; experiment: cell-based or functional assay

Molecule: CC(=O)NC1(c2ccccc2)CCN(CC[C@H](CN(C)C(=O)c2ccccc2)c2ccc(Cl)c(Cl)c2)CC1 [SR 48968]
- Blocking cell proliferation [1]: efficacy in blocking cell proliferation

Molecule: Cc1ccc(CC(=O)N(C)[C@H](Cc2ccc3ccccc3c2)C(=O)N[C@@H]2CCCC[C@@H]2NC(=O)c2c[nH]c3ccccc23)cc1 [MEN 11467]
- Blocking cell proliferation [1]: efficacy in blocking cell proliferation

Molecule: CC(=O)N[C@@H]1[C@@H](O)[C@H](O)[C@@H](CO)O[C@H]1NC(=O)C[C@@H]1NC(=O)[C@H](CC(C)C)NC(=O)[C@@H]2CNC(=O)C[C@H](NC1=O)C(=O)N[C@@H](Cc1c[nH]c3ccccc13)C(=O)N[C@@H](Cc1ccccc1)C(=O)N2 [MEN 11420, nepadutant] (cyclo(D(NH(β-GlcNAc))DWF[Dap]L); lactam 2-5)
- Blocking cell proliferation [1]: efficacy in blocking cell proliferation

Results, then the molecule that gave them:

- % of fibroblast cells with expression for MMP-3; anti-NK2 (1/100) and Substance P (1 µM) (NK2 receptor (human)): 0%
- % of fibroblast cells with expression for MMP-7; anti-NK2 (1/100) and Substance P (1 µM) (NK2 receptor (human)): 0%
- % of fibroblast cells with expression for MMP-9; anti-NK2 (1/100) and Substance P (1 µM) (NK2 receptor (human)): 0%
- % of fibroblast cells with expression for MMP-11; anti-NK2 (1/100) and Substance P (1 µM) (NK2 receptor (human)): 0%
- % of fibroblast cells with expression for MMP-13; anti-NK2 (1/100) and Substance P (1 µM) (NK2 receptor (human)): 0%
- % of fibroblast cells with expression for MMP-14; anti-NK2 (1/100) and Substance P (1 µM) (NK2 receptor (human)): 0%
- % of fibroblast cells with expression for SPARC; anti-NK2 (1/100) and Substance P (1 µM) (NK2 receptor (human)): 0%
- % of fibroblast cells with expression for TGF-alpha; anti-NK2 (1/100) and Substance P (1 µM) (NK2 receptor (human)): 0%
- % of fibroblast cells with expression for TGF-beta 1; anti-NK2 (1/100) and Substance P (1 µM) (NK2 receptor (human)): 0%
- % of fibroblast cells with expression for TGF-beta 2; anti-NK2 (1/100) and Substance P (1 µM) (NK2 receptor (human)): 0%
- % of fibroblast cells with expression for TGF-beta 3; anti-NK2 (1/100) and Substance P (1 µM) (NK2 receptor (human)): 0%
- % of mononuclear cells with expression for NF-kB; anti-NK2 (1/100) and Substance P (1 µM) (NK2 receptor (human)): 0%
- % of mononuclear cells with expression for TGF-beta; anti-NK2 (1/100) and Substance P (1 µM) (NK2 receptor (human)): 0%
- % of polymorphonuclear cells with expression for NF-kB; anti-NK2 (1/100) (NK2 receptor (human)): 0%
- % of polymorphonuclear cells with expression for TGF-beta; anti-NK2 (1/100) (NK2 receptor (human)): 0%
Molecule: anti-NK2 antibody (Sigma-Aldrich, product number HPA012084)

- % of fibroblast cells with expression for MMP-3; anti-NK3 (1/100) and Substance P (1 µM) (NK3 receptor (human)): 0%
- % of fibroblast cells with expression for MMP-7; anti-NK3 (1/100) and Substance P (1 µM) (NK3 receptor (human)): 0%
- % of fibroblast cells with expression for MMP-9; anti-NK3 (1/100) and Substance P (1 µM) (NK3 receptor (human)): 0%
- % of fibroblast cells with expression for MMP-11; anti-NK3 (1/100) and Substance P (1 µM) (NK3 receptor (human)): 0%
- % of fibroblast cells with expression for MMP-13; anti-NK3 (1/100) and Substance P (1 µM) (NK3 receptor (human)): 0%
- % of fibroblast cells with expression for MMP-14; anti-NK3 (1/100) and Substance P (1 µM) (NK3 receptor (human)): 0%
- % of fibroblast cells with expression for SPARC; anti-NK3 (1/100) and Substance P (1 µM) (NK3 receptor (human)): 0%
- % of fibroblast cells with expression for TGF-alpha; anti-NK3 (1/100) and Substance P (1 µM) (NK3 receptor (human)): 0%
- % of fibroblast cells with expression for TGF-beta 1; anti-NK3 (1/100) and Substance P (1 µM) (NK3 receptor (human)): 0%
- % of fibroblast cells with expression for TGF-beta 2; anti-NK3 (1/100) and Substance P (1 µM) (NK3 receptor (human)): 0%
- % of fibroblast cells with expression for TGF-beta 3; anti-NK3 (1/100) and Substance P (1 µM) (NK3 receptor (human)): 0%
- % of mononuclear cells with expression for NF-kB; anti-NK3 (1/100) and Substance P (1 µM) (NK3 receptor (human)): 0%
- % of mononuclear cells with expression for TGF-beta; anti-NK3 (1/100) and Substance P (1 µM) (NK3 receptor (human)): 0%
- % of polymorphonuclear cells with expression for NF-kB; anti-NK3 (1/100) (NK3 receptor (human)): 0%
- % of polymorphonuclear cells with expression for TGF-beta; anti-NK3 (1/100) (NK3 receptor (human)): 0%
Molecule: anti-NK3 antibody (Sigma-Aldrich, product number HPA009418)

- % of fibroblast cells with expression for MMP-3; anti-NK1 (1/100) and Substance P (1 µM) (NK1 receptor (human)): 0%
- % of fibroblast cells with expression for MMP-7; anti-NK1 (1/100) and Substance P (1 µM) (NK1 receptor (human)): 0%
- % of fibroblast cells with expression for MMP-9; anti-NK1 (1/100) and Substance P (1 µM) (NK1 receptor (human)): 0%
- % of fibroblast cells with expression for MMP-11; anti-NK1 (1/100) and Substance P (1 µM) (NK1 receptor (human)): 0%
- % of fibroblast cells with expression for MMP-13; anti-NK1 (1/100) and Substance P (1 µM) (NK1 receptor (human)): 0%
- % of fibroblast cells with expression for MMP-14; anti-NK1 (1/100) and Substance P (1 µM) (NK1 receptor (human)): 0%
- % of fibroblast cells with expression for SPARC; anti-NK1 (1/100) and Substance P (1 µM) (NK1 receptor (human)): 0%
- % of fibroblast cells with expression for TGF-alpha; anti-NK1 (1/100) and Substance P (1 µM) (NK1 receptor (human)): 0%
- % of fibroblast cells with expression for TGF-beta 1; anti-NK1 (1/100) and Substance P (1 µM) (NK1 receptor (human)): 0%
- % of fibroblast cells with expression for TGF-beta 2; anti-NK1 (1/100) and Substance P (1 µM) (NK1 receptor (human)): 0%
- % of fibroblast cells with expression for TGF-beta 3; anti-NK1 (1/100) and Substance P (1 µM) (NK1 receptor (human)): 0%
- % of mononuclear cells with expression for NF-kB; anti-NK1 (1/100) and Substance P (1 µM) (NK1 receptor (human)): 0%
- % of mononuclear cells with expression for TGF-beta; anti-NK1 (1/100) and Substance P (1 µM) (NK1 receptor (human)): 0%
- % of polymorphonuclear cells with expression for NF-kB; anti-NK1 (1/100) (NK1 receptor (human)): 0%
- % of polymorphonuclear cells with expression for TGF-beta; anti-NK1 (1/100) (NK1 receptor (human)): 0%
Molecule: anti-NK1 antibody (Sigma-Aldrich, product number S8305)

- % of fibroblast cells with expression for MMP-3; Substance P (1 µM) [2]: 33.9%
- % of fibroblast cells with expression for MMP-7; Substance P (1 µM) [2]: 46.2%
- % of fibroblast cells with expression for MMP-9; Substance P (1 µM) [2]: 35.5%
- % of fibroblast cells with expression for MMP-11; Substance P (1 µM) [2]: 7.8%
- % of fibroblast cells with expression for MMP-13; Substance P (1 µM) [2]: 17.1%
- % of fibroblast cells with expression for MMP-14; Substance P (1 µM) [2]: 47.3%
- % of fibroblast cells with expression for SPARC; Substance P (1 µM) [2]: 16%
- % of fibroblast cells with expression for TGF-alpha; Substance P (1 µM) [2]: 16.5%
- % of fibroblast cells with expression for TGF-beta 1; Substance P (1 µM) [2]: 18.4%
- % of fibroblast cells with expression for TGF-beta 2; Substance P (1 µM) [2]: 24.6%
- % of fibroblast cells with expression for TGF-beta 3; Substance P (1 µM) [2]: 23.1%
- % of mononuclear cells with expression for NF-kB; Substance P (1 µM) [2]: 25.7%
- % of mononuclear cells with expression for TGF-beta; Substance P (1 µM) [2]: 16.4%
- % of polymorphonuclear cells with expression for NF-kB; Substance P (1 µM) [2]: 17.5%
- % of polymorphonuclear cells with expression for TGF-beta; Substance P (1 µM) [2]: 36.8%
Molecule: RPKPQQFFGLM (peptide, UniProt P20366 58-68, looked up) [Substance P (product no. S6883; Sigma-Aldrich)]
